According to article PMC3774411, “Characterization of the Human Sigma-1 Receptor Chaperone Domain Structure and Binding Immunoglobulin Protein (BiP) Interactions*” (The Journal of Biological Chemistry, 2013):

Key:
[1] = target: T1, human binding immunoglobulin protein (BiP), residues 26-654 ("full length") (human, UniProt P11021 26-654); experiment: NMR titration; 15N-labelled S1R(cd) (~250 uM) in DPC micelles titrated with unlabelled BiP constructs; 1H,15N SOFAST-HMQC, cross-peak intensities and chemical shifts; 100 mM NaCl, 30 mM DPC, 5 mM 2-mercaptoethanol, 20 mM HEPES pH 6.5, 37 C; full-length BiP without and with 2.5 mM calcium chloride, NBD without calcium, SBD with 2.5 mM calcium; conditions: both partners purified
T1 construct: Constructs from Herwig Schueler, Karolinska Institutet; also called full-length BiP; source: E. coli BL21(DE3), purified (ammonium sulfate precipitation, nickel chromatography, Q-Sepharose, Superdex200)
T1 sequence (P11021 26-654): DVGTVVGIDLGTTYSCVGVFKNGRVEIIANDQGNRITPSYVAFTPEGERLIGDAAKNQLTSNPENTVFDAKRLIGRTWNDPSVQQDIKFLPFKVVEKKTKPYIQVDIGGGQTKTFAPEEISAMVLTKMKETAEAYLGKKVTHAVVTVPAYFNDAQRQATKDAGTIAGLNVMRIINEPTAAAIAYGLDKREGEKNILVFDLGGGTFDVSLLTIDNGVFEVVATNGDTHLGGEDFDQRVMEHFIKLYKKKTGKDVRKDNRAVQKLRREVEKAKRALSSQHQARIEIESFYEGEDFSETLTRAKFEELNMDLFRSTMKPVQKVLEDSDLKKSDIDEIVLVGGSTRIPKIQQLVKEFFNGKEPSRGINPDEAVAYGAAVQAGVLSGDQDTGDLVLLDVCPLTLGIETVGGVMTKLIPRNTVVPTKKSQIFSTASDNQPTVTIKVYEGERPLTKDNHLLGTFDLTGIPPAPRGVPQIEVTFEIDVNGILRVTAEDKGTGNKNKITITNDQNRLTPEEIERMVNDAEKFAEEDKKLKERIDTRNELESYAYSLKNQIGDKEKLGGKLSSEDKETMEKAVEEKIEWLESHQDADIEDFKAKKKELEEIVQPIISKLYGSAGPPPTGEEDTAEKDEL

[2] = target: T2, isolated nucleotide binding domain of human BiP (residues 26-410) (human, UniProt P11021 26-410); experiment: as above; conditions: both partners purified
T2 construct: also called NBD; BiP NBD; source: E. coli BL21(DE3), purified (ammonium sulfate precipitation, nickel chromatography, Q-Sepharose, Superdex200)
T2 sequence (P11021 26-410): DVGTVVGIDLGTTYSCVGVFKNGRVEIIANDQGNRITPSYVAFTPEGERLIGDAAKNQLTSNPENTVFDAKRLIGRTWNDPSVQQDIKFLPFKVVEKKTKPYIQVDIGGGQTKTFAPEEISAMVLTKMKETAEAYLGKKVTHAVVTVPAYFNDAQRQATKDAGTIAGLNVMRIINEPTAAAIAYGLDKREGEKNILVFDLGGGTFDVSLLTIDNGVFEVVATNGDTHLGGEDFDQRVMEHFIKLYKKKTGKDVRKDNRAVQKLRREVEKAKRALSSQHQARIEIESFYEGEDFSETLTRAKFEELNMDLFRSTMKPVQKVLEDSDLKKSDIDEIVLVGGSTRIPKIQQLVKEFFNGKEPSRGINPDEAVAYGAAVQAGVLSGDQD

binding result [1]: binds
binding result [2]: binds
B1: human sigma-1 receptor chaperone domain (residues 112-223) (domain or fragment, UniProt Q99720 112-223, looked up)
chain: GSRGHSGRYWAEISDTIISGTFHQWREGTTKSEVFYPGETVVHGPGEATAVEWGPNTWMVEYGRGVIPSTLAFALADTVFSTQDFLTLFYTLRSYARGLRLELTTYLFGQDP
notes: sigma-1 receptor (S1R), human, residues 112-223 (chaperone domain; 223 is the C-terminal residue); 15N-labelled for the titrations; No cleavage of the tag is described; also called S1R(cd); S1R chaperone domain
